# Data taken from PMC7994000 (Biochimica et biophysica acta. Proteins and proteomics, 2020).
# T1: Full-length human IKK2 (human, UniProt O14920 1-756)
# T1 sequence (looked up): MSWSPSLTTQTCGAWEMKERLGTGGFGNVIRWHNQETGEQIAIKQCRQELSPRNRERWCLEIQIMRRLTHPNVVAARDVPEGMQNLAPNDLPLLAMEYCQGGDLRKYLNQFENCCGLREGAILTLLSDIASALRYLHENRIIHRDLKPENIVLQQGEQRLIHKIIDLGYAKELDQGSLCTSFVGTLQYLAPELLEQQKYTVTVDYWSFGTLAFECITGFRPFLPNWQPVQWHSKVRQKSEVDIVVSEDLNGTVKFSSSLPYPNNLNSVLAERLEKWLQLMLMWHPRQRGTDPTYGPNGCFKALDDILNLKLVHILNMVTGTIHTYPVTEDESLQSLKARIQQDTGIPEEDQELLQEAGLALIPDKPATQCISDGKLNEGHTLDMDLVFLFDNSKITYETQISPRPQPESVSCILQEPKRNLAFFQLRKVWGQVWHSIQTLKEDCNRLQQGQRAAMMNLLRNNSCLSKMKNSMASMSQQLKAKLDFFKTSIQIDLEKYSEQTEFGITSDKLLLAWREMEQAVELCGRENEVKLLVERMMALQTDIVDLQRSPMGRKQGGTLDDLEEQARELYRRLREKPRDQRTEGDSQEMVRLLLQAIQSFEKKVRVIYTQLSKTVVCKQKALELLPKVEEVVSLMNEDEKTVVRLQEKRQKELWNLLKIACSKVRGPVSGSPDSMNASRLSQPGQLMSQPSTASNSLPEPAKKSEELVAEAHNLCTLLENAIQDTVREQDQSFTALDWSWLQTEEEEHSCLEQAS
# B1: NEMO^250–365 (domain or fragment, human, UniProt Q9Y6K9 250-365, looked up)
# chain: VGSERKRGMQLEDLKQQLQQAEEALVAKQEVIDKLKEEAEQHKIVMETVPVLKAQADIYKADFQAERQAREKLAEKKELLQEQLEQLQREYSKLKASCQESARIEDMRKRHVEVSQ
# B2: NEMO^1–110 (domain or fragment, human, UniProt Q9Y6K9 1-110, looked up)
# chain: MNRHLWKSQLCEMVQPSGGPAADQDVLGEESPLGKPAMLHLPSEQGAPETLQRCLEENQELRDAIRQSNQILRERCEELLHFQASQREEKEFLMCKFQEARKLVERLGLE
# B3: NEMO^111–250 (domain or fragment, human, UniProt Q9Y6K9 111-250, looked up)
# chain: KLDLKRQKEQALREVEHLKRCQQQMAEDKASVKAQVTSLLGELQESQSRLEAATKECQALEGRARAASEQARQLESEREALQQQHSVQVDQLRMQGQSVEAALRMERQAASEEKRKLAQLQVAYHQLFQEYDNHIKSSVV
# B4: NEMO^1–210 (domain or fragment, human, UniProt Q9Y6K9 1-210, looked up)
# chain: MNRHLWKSQLCEMVQPSGGPAADQDVLGEESPLGKPAMLHLPSEQGAPETLQRCLEENQELRDAIRQSNQILRERCEELLHFQASQREEKEFLMCKFQEARKLVERLGLEKLDLKRQKEQALREVEHLKRCQQQMAEDKASVKAQVTSLLGELQESQSRLEAATKECQALEGRARAASEQARQLESEREALQQQHSVQVDQLRMQGQSVE
# B5: NEMO^1–280 (domain or fragment, human, UniProt Q9Y6K9 1-280, looked up)
# chain: MNRHLWKSQLCEMVQPSGGPAADQDVLGEESPLGKPAMLHLPSEQGAPETLQRCLEENQELRDAIRQSNQILRERCEELLHFQASQREEKEFLMCKFQEARKLVERLGLEKLDLKRQKEQALREVEHLKRCQQQMAEDKASVKAQVTSLLGELQESQSRLEAATKECQALEGRARAASEQARQLESEREALQQQHSVQVDQLRMQGQSVEAALRMERQAASEEKRKLAQLQVAYHQLFQEYDNHIKSSVVGSERKRGMQLEDLKQQLQQAEEALVAKQEV
# B6: NEMO^1–130 (domain or fragment, human, UniProt Q9Y6K9 1-130, looked up)
# chain: MNRHLWKSQLCEMVQPSGGPAADQDVLGEESPLGKPAMLHLPSEQGAPETLQRCLEENQELRDAIRQSNQILRERCEELLHFQASQREEKEFLMCKFQEARKLVERLGLEKLDLKRQKEQALREVEHLKR
# B7: NEMO^1–250 (domain or fragment, human, UniProt Q9Y6K9 1-250, looked up)
# chain: MNRHLWKSQLCEMVQPSGGPAADQDVLGEESPLGKPAMLHLPSEQGAPETLQRCLEENQELRDAIRQSNQILRERCEELLHFQASQREEKEFLMCKFQEARKLVERLGLEKLDLKRQKEQALREVEHLKRCQQQMAEDKASVKAQVTSLLGELQESQSRLEAATKECQALEGRARAASEQARQLESEREALQQQHSVQVDQLRMQGQSVEAALRMERQAASEEKRKLAQLQVAYHQLFQEYDNHIKSSVV
# Molecular target: the molecule itself
# Test: SEC-MALS
Binder,stoichiometry N,binding result
B1,2,
B2,2,
B3,2,
B4,,binds
B5,,binds
B6,2,
B7,2,

# Molecular target: T1, Full-length human IKK2
# Test: SEC-MALS
row,binding result,Binder
1,binds,B4
2,binds,B5
3,binds,B6
4,binds,B7
